Experimental findings from publication PMC3733117 are described below.

In the series the target is DNA polymerase beta I260Q (rat, UniProt P06766 1-335, I260Q). As to the kind of experiment: X-ray crystallography.

B1: cocrystallization primer/template (dsDNA)
DNA 1: ATGTGAG
DNA 2: CAAACTCACAT
Turning to B1, the binding result is recorded as “binds”.
